The source of these data is patent US20190209659, “STABLE LIQUID FIBRINOGEN” (LABORATOIRE FRANCAIS DU FRACTIONNEMENT ET DES …, published 2019).

Series [1] deals with T1, fibrinogen (plasma) (Homo sapiens, UniProt P02671-2;P02675;P02679-2 P02671-2:20-644,P02675:31-491,P02679-2:27-437). Briefly: SPR; 250 nM fibrinogen, pH 6.3; resists 0.5 M NaCl. The conditions noted are these: tags: human plasma purified, 95% or 99.9% purity; semi-purified and plasma used in chromatography; chain copies: 2.
Series [2] has as its target T2, fibrinogen (transgenic, human) (Homo sapiens, UniProt P02671-2;P02675;P02679-2 P02671-2:20-644,P02675:31-491,P02679-2:27-437). Briefly: SPR; stated strong affinity for plasma and transgenic fibrinogen, pH 6.3. The conditions noted are these: tags: purified from transgenic cow milk, 97% purity; chain copies: 2.
In series [3] the target is T1, fibrinogen (plasma). Description: competition; significant inhibition of fibrinogen binding to immobilised SEQ 66 (SPR). The conditions noted are these: tags: human plasma purified, 95% or 99.9% purity; semi-purified and plasma used in chromatography; chain copies: 2. As to the method: (§1) In order to compare the affinity of the designed variants with that of the parental aptamer, a concurrent test was conducted. Firstly, a 1 μM solution of the aptamer of SEQ ID NO 66 was prepared using binding buffer. The aptamer solution was heated to 90° C. for 5 min, incubated in ice for 5 min and balanced at the ambient temperature for 10 min. The preparation was injected into a sensor chip coated with streptavidin SA from Biacore T200 instrument (GE Healthcare) at a rate of 10 μl/min for 7 min. Then, mixtures containing a variant (2 μM) and the human plasma fibrinogen (0.4 μM) were injected on the aptamer immobility at a rate of 30 μl/min for 1 minute. The response obtained for the various fragment/fibrinogen mixtures was compared.

For series [4], the target named is T1, fibrinogen (plasma). Description: SPR; stated strong affinity, pH-dependent. Particulars: tags: human plasma purified, 95% or 99.9% purity; semi-purified and plasma used in chromatography; chain copies: 2.
Series [5] deals with T2, fibrinogen (transgenic, human). Description: SPR; stated strong affinity, pH-dependent. Particulars: tags: purified from transgenic cow milk, 97% purity; chain copies: 2.
Series [6] has as its target T1, fibrinogen (plasma). Description: SPR; dose-dependent 125-1000 nM, pH 6.3, MOPS, NaCl 150 mM, MgCl2 5 mM; resists 0.5 M NaCl, eluted at pH 7.4. The conditions noted are these: tags: human plasma purified, 95% or 99.9% purity; semi-purified and plasma used in chromatography; chain copies: 2. As to the method: Each solution of human plasma fibrinogen was injected at pH 6.3 in such a way that a complex was formed in a dose-dependent manner as shown by the increase in the signals depending on the concentration of fibrinogen. […] The fibrinogen was then released from the complex by an elution buffer at pH 7.40. The solid support was then regenerated by injection of a solution of NaOH 50 mM. X-axis: time in s. Y-axis: SPR response in arbitrary unit.
(§2) The chosen aptamer was synthesised with biotin and a spacer of triethylene glycol at the end 5′ of the oligonucleotide. A solution 1 μM of the aptamer was prepared using the SELEX selection buffer. The aptamer solution was heated to 90° C. for 5 min, incubated in ice for 5 min and balanced at the ambient temperature for 10 min. The preparation was injected into a sensor chip coated with streptavidin SA from Biocore T200 instrument (GE Healthcare) at a debit of […] for 7 min. Then, various concentrations of the target were injected onto the immobilised aptamer at a rate of 30 μl/min for 1 minute. After a dissociation for 1-2 min, a step of washing was carried out via injection of a suitable wash buffer at a rate of 30 μl/min for 1 min. For the elution, a suitable elution buffer was injected at a rate of 30 μl/min for 1-2 min. […] During the experiment, the response signal was recorded in a sensorgram.

The target of series [7] is T2, fibrinogen (transgenic, human). Description: SPR; dose-dependent 125-1000 nM, pH 6.3; resists 0.5 M NaCl, eluted at pH 7.4. The conditions noted are these: tags: purified from transgenic cow milk, 97% purity; chain copies: 2. As to the method:
Each solution of transgenic fibrinogen was injected at pH 6.3 in such a way that a complex was formed in a dose-dependent manner as shown by the increase in the signals depending on the concentration of fibrinogen. […] The fibrinogen was then released from the complex by an elution buffer at pH 7.40. The solid support was then regenerated by injection of a solution of NaOH 50 mM. X-axis: time in s. Y-axis: SPR response in arbitrary unit.
as §2

Series [8] has as its target T1, fibrinogen (plasma). Description: competition; 2 uM variant with 0.4 uM fibrinogen over immobilised SEQ 66 (SPR); among highest affinity. Particulars: tags: human plasma purified, 95% or 99.9% purity; semi-purified and plasma used in chromatography; chain copies: 2. Here is the method: as §1
Series [9] deals with T2, fibrinogen (transgenic, human). Briefly: SPR; dose-dependent 125-1000 nM, pH 6.3; resists 1 M NaCl, eluted at pH 7.4 with 2 M MgCl2. Particulars: tags: purified from transgenic cow milk, 97% purity; chain copies: 2. As to the method:
Each solution of transgenic fibrinogen was injected at pH 6.3 in such a way that a complex was formed in a dose-dependent manner as shown by the increase in the signals depending on the concentration of fibrinogen. […] The fibrinogen was then released from the complex by an elution buffer at pH 7.40 and containing MgCl₂ 2 M. The solid support was then regenerated by injection of a solution of NaOH 50 mM. X-axis: time in s. Y-axis: SPR response in arbitrary unit.
as §2

For series [10], the target named is T1, fibrinogen (plasma). The series is described as above. The conditions noted are these: tags: human plasma purified, 95% or 99.9% purity; semi-purified and plasma used in chromatography; chain copies: 2. As to the method:
Each solution of human plasma fibrinogen was injected at pH 6.3 in such a way that a complex was formed in a dose-dependent manner as shown by the increase in the signals depending on the concentration of fibrinogen. […] The fibrinogen was then released from the complex by an elution buffer at pH 7.40 and containing MgCl₂ 2 M. The solid support was then regenerated by injection of a solution of NaOH 50 mM. X-axis: time in s. Y-axis: SPR response in arbitrary unit.
as §2

T1 sequence (P02671 other isoform, or with tags, fused parts or gaps, chain 1 of 3): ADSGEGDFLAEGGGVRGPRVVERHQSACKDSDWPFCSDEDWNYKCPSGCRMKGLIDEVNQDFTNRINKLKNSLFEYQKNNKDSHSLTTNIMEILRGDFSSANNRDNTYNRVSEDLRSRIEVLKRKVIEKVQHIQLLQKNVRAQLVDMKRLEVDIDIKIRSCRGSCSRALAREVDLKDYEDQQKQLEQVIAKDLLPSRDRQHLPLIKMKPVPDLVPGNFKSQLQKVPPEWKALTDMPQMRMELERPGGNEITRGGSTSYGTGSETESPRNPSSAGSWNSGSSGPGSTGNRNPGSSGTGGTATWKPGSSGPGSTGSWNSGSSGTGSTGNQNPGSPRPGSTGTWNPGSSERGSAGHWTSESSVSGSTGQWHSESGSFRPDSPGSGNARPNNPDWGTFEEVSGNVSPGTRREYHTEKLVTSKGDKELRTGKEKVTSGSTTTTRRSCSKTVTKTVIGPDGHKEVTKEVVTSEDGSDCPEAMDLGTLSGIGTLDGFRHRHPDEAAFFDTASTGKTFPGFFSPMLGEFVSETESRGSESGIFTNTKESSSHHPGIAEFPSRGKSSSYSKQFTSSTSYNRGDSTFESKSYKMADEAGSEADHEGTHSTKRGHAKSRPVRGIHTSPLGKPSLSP
T1 sequence (P02675 31-491, chain 2 of 3): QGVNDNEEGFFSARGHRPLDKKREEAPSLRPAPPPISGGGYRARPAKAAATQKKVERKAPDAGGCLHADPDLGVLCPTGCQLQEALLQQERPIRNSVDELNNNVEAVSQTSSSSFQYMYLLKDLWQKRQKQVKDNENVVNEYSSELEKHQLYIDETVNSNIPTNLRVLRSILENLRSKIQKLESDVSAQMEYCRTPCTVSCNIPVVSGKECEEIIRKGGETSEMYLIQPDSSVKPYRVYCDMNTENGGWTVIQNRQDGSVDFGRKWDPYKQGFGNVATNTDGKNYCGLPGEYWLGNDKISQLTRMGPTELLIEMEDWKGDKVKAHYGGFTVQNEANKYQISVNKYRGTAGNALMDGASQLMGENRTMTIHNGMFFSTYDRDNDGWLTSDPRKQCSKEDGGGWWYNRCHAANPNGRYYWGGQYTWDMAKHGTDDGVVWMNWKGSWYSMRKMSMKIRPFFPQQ
T1 sequence (P02679 other isoform, or with tags, fused parts or gaps, chain 3 of 3): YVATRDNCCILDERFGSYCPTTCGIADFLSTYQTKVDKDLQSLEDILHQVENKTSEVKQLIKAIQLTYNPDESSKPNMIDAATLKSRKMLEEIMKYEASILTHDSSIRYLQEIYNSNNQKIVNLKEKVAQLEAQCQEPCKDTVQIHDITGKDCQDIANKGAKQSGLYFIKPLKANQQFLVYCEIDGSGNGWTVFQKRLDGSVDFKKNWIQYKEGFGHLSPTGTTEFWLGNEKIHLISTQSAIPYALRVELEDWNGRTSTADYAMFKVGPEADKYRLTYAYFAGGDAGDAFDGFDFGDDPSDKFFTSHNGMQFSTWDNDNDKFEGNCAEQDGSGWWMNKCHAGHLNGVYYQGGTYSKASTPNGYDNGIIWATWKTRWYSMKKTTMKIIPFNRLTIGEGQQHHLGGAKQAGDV
T2 sequence (P02671 other isoform, or with tags, fused parts or gaps, chain 1 of 3): as the sequence (P02671 other isoform, or with tags, fused parts or gaps, chain 1 of 3) above
T2 sequence (P02675 31-491, chain 2 of 3): as the sequence (P02675 31-491, chain 2 of 3) above
T2 sequence (P02679 other isoform, or with tags, fused parts or gaps, chain 3 of 3): as the sequence (P02679 other isoform, or with tags, fused parts or gaps, chain 3 of 3) above

B1: SEQ ID NO 65 aptamer (ssDNA)
DNA: GGGTCAATGCCAGGTCTCGAGCCGGTGTTGTGTTATGTTGGTAGGGAAGGTGTATAATATCGGCTCGCAAGCAGTC
modifications: 5' biotin-triethylene glycol
Take B1: the binding result (in the series with fibrinogen (plasma) [1]; in series [2]) was “binds” in each case.

B2: SEQ ID NO 90 variant (ssDNA)
DNA: GTCAATGCCAGGTCTCGGACCTGGAATCCGCCACCCGCATAGAACCAGGGTTGAC
Consider B2, for which the binding result in the series with fibrinogen (plasma) [3] is given as “binds”.

B3: SEQ ID NO 92 variant (ssDNA)
DNA: GTCAATGCCAGGTCTCGGACCTGGAATCCGCCACCCGCTTAGAACCAGGGTTGAC
Consider B3, for which the binding result in the series with fibrinogen (plasma) [3] is “binds”.

B4: SEQ ID NO 1 aptamer (ssDNA)
DNA: GGGTCAATGCCAGGTCTCGGACCTGGAATCCGCCACCCGCATTAGAACCAGGGTTGACATCGGCTCGCAAGCAGTC
modifications: 5' biotin-triethylene glycol
Regarding B4, the binding result (in the series with fibrinogen (plasma) [4]; in [5]) was “binds” throughout.

B5: SEQ ID NO 66 (A5-1.9 base sequence) (ssDNA)
DNA: GGGTCAATGCCAGGTCTCGGACCTGGAATCCGCCACCCGCATTAGAACCAGGGTTGAC
modifications: 5' biotin-triethylene glycol (SPR); 5' amino-C6 spacer and 3' inverted dT (affinity support)
Consider B5, for which the binding result (in the series with fibrinogen (plasma) [6]; in [7]) was “binds” in each case.

B6: SEQ ID NO 89 variant (ssDNA)
DNA: GTCAATGCCAGGTCTCGGACCTGGAATCCGCCACCCGCATTAGAACCAGGGTTGA
Turning to B6, the binding result in the series with fibrinogen (plasma) [3] is given as “binds”.

B7: SEQ ID NO 87 variant (ssDNA)
DNA: GTCAATGCCAGGTCTCACCTGGAATCCGCCACCCGCATTAGAACCAGGGTTGAC
B7: in the series with fibrinogen (plasma) [8], the binding result is “binds”.

B8: SEQ ID NO 88 variant (ssDNA)
DNA: GTCAATGCCAGGTCGGACCTGGAATCCGCCACCCGCATTAGAACCAGGGTTGAC
As for B8, the binding result with fibrinogen (plasma) [3] was “binds”.

B9: SEQ ID NO 82 variant (ssDNA)
DNA: GTCAATGCCAGTCGCTGGAATCCGCCACCCGCATTAGAACCAGGGTTGAC
For B9, the binding result with fibrinogen (plasma) [8] was “binds”.

B10: SEQ ID NO 83 variant (ssDNA)
DNA: GTCAATGCCAGGTCTCCTGGAATCCGCCACCCGCATTAGAACCAGGGTTGAC
Consider B10, for which the binding result in the series with fibrinogen (plasma) [8] is reported as “binds”.

B11: SEQ ID NO 84 variant (ssDNA)
DNA: GTCAATGCCAGGTCACCTGGAATCCGCCACCCGCATTAGAACCAGGGTTGAC
With B11, the binding result in the series with fibrinogen (plasma) [8] was “binds”.

B12: SEQ ID NO 93 variant (ssDNA)
DNA: GTCAATGCCAGCGGACCTGGAATCCGCCACCCGCATTAGAACCAGGGTTGAC
B12: the binding result with fibrinogen (plasma) [3] is given as “binds”.

B13: SEQ ID NO 86 variant (ssDNA)
DNA: GTCAATGCCAGGTCGCCTGGAATCCGCCACCCGCATTAGAACCAGGGTTGAC
As for B13, the binding result with fibrinogen (plasma) [8] was “binds”.

B14: SEQ ID NO 60 aptamer (ssDNA)
DNA: GGGTCAATGCCAGGTCTCTGCGTACTTATCTCGATGTGGTTGGTAGGGATAGGTGTATATCGGCTCGCAAGCAGTC
modifications: 5' biotin-triethylene glycol
Consider B14, for which the binding result (with fibrinogen (plasma) [1]; in series [2]) was “binds” each time.

B15: SEQ ID NO 81 variant (ssDNA)
DNA: GTCAATGCCAGGTCTCCCTGGAATCCGCCACCCGCATTAGAACCAGGGTTGAC
As for B15, the binding result in the series with fibrinogen (plasma) [8] was “binds”.

B16: SEQ ID NO 85 variant (ssDNA)
DNA: GTCAATGCCAGGTCGACCTGGAATCCGCCACCCGCATTAGAACCAGGGTTGAC
As to B16, in the series with fibrinogen (plasma) [8], the binding result is “binds”.

B17: SEQ ID NO 91 variant (ssDNA)
DNA: GTCAATGCCAGTCGGACCTGGAATCCGCCACCCGCATTAGAACCAGGGTTGAC
As for B17, the binding result with fibrinogen (plasma) [3] is on record as “binds”.

B18: SEQ ID NO 58 aptamer (ssDNA)
DNA: GGGTCAATGCCAGGTCTCAACTTTCGCGTGTGGTTGGTAGGGCTAGGTGTATACGCATATCGGCTCGCAAGCAGTC
modifications: 5' biotin-triethylene glycol
Regarding B18, the binding result (with fibrinogen (plasma) [4]; in series [5]) was “binds” each time.

B19: SEQ ID NO 67 (A5-2.9 base sequence) (ssDNA)
DNA: CGCGTGTGGTTGGTAGGGCTAGGTGTATACGCAT
modifications: 5' biotin-triethylene glycol (SPR); 5' amino-C6 spacer and 3' inverted dT (affinity support)
With B19, the binding result (in series [9]; in the series with fibrinogen (plasma) [10]) was “binds” in each case.

B20: SEQ ID NO 80 variant (deletion 1/2) (ssDNA)
DNA: GTCAATGCCAGGTCTCGGACCTGGAATCCGCCACCCGCATTAGAACCAGGGTTGAC
As for B20, the binding result with fibrinogen (plasma) [8] was “binds”.
